Assays:
[1] = molecular target: T1, soluble RAGE (sRAGE), the soluble, extracellular portion of the human Receptor for Advanced Glycated … (human, UniProt Q15109 23-339); assay: ELISA saturation curve with Scatchard analysis (FIG. 8), 50 ng/well S-100b coated, sRAGE about 0.3-10 nM; high affinity component
[2] = molecular target: T1, soluble RAGE (sRAGE), the soluble, …; assay: ELISA saturation curve with Scatchard analysis (FIG. 9), 100 ng/well S-100b coated, sRAGE about 0.3-10 nM; high affinity component
[3] = molecular target: T1, soluble RAGE (sRAGE), the soluble, …; assay: ELISA saturation curves with Scatchard analysis (FIGS. 10 and 11), 500 and 100 ng/well S-100b coated, sRAGE about 23-470 nM or 5-76 nM; low affinity site, told for both experiments

T1 sequence (Q15109 23-339 limits assumed): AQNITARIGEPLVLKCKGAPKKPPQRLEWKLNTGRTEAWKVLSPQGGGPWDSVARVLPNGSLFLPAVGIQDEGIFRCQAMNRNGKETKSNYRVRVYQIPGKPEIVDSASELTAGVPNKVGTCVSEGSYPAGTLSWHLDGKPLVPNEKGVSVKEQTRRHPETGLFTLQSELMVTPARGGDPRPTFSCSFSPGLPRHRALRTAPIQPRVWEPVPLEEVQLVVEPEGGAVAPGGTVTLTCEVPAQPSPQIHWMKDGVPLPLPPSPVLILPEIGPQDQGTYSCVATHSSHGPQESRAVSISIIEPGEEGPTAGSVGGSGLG

- Kd [1]: ~6 nM
- Kd [2]: ~2 nM
- Kd [3]: ~60 nM
B1: S-100b (ligand)
chain: MSELEKAMVALIDVFHQYSGREGDKHKLKKSELKELINNELSHFLEEIKEQEVVDKVMETLDNDGDGECDFQEFMAFVAMVTTACHEFFEHE
